Assay [1] deals with P. aeruginosa (serotype 10). To be noted: cited from earlier work.
Assay [2] concerns IL-10. The experiment in a line: PCR of IL-10 transcripts in spleen cells of challenged mice. The format is in vivo. To be noted: after infection, animals which had received IL-9; control mice hardly detectable. The procedure: The experiments described herein report analyses of expression of IL-10. Specifically, total RNA was isolated from spleen cells of challenged mice at different points in time (0.5, 1, 2, 4, and 8 hours). Isolation was carried out in accordance with Campanile, et al, Eur. J. Pharmacol. 307:191 (1996), and Houssiau, et al, J. Immunol. 154:2624 (1995), incorporated by reference. These references also describe the PCR protocols used for amplifying transcripts of β-actin (control), and IL-10. Commercially available primers were used to amplify β actin, and the 5′ and 3′ primers for IL-10 were, respectively: […]
The amplification product for β actin should be 540 base pairs in length, and that of IL-10, 256 base pairs. Products were analyzed via 1.5% agarose gel electrophoresis, and visualized by ethidium bromide staining.

Assay [3] relates to TNF-α. In words: serum TNF-α bioassay (cytotoxicity to WEH1 164 cells) after P. aeruginosa challenge. It counts as in vivo. To be noted: P. aeruginosa treated mice; IL-9 24 and 1 hour prior to challenge. An excerpt: (§1) It has been observed, previously, that there is a strong association between development of fatal septic shock and production of TNF-α. See, e.g., the Campanile papers, cited supra. In addition, IL-12 and IFN-γ are pro-inflammatory cytokines thought to have a pathogenetic role in both septic shock and endotoxemia. See D'Andrea, et al, J. Exp. Med. 178:1041 (1993). Murphy, et al, J. Exp. Med. 180:223 (1994); Kubin, et al, J. Exp. Med. 180:211 (1994). In view of the results secured in examples 1 & 2, studies were undertaken to measure serum levels of TNF-α, IL-12 p40, and IFN-γ, in subject animals challenged with P. aeruginosa in the manner described supra, or lipopolysaccharide antigen (“LPS” hereafter), that were also treated with IL-9.
(§2) In these experiments, mice were injected, intraperitoneally, with 850 μg of LPS, which had been determined previously to constitute an LD90. All animals received doses of IL-9 as described supra, 24 and 1 hour prior to challenge. Sera were analyzed 2, 4, 6, 8, and 24 hours following challenge, using either a standard bioassay for TNF-α (cytotoxicity to TNF-α sensitive WEH1 164 cells), or via an immunossay (IL-12p40 and IFN-γ).

A short description of assay [4]: LPS challenge (LD90), survival. The format is in vivo, mice. The note with it: 850 μg LPS i.p.; IL-9 24 and 1 hour prior to challenge. The procedure: as §2
The subject of assay [5] is IL-10. The experiment in a line: serum IL-10 by ELISA after LPS challenge. It counts as in vivo. To be noted: LPS challenged mice; IL-9 24 and 1 hour prior to challenge. The method, then:
(§3) In view of the observations of Giampetri, et al, supra, serum levels of the anti-inflammatory cytokines IL-4 and IL- 10 were measured in the sera of mice that had been challenged, either with the whole bacteria or with LPS, as described supra, and had received IL-9 24 and 1 hour prior to challenge, as described supra. Levels were measured via ELISAs, 2, 4, 6, 8, and 24 hours after challenge.

In assay [6] the test system is IL-10. In words: serum IL-10 by ELISA after P. aeruginosa challenge. The note with it: 2 hours following Pseudomonas infection; IL-9 24 and 1 hour prior to challenge. It counts as in vivo, mice. The procedure:
as §3

The test system of assay [7] is TNF-α, IL-12 p40, and IFN-γ. In words: serum levels of TNF-α, IL-12 p40 and IFN-γ after challenge (bioassay / immunoassay). The note with it: IL-9 24 and 1 hour prior to challenge (P. aeruginosa or LPS); 2, 4 and 6 hours after challenge. It counts as in vivo, mice.
From the text: as §1, §2

The test system of the next assay is IL-4. In words: serum IL-4 by ELISA after challenge. The format is in vivo, mice. The note with it: IL-9 24 and 1 hour prior to challenge with bacteria or LPS; 2-24 hours after challenge. The procedure:
as §3

For assay [8], the system named is TNF-α. The experiment in a line: serum TNF-α bioassay (cytotoxicity to WEH1 164 cells) after LPS challenge. The format is in vivo, mice. To be noted: LPS challenged animals (850 μg i.p.); IL-9 24 and 1 hour prior to challenge.
From the text: as §1, §2

Assay [9] concerns P. aeruginosa (serotype 10). The experiment in a line: live sepsis model, survival after lethal P. aeruginosa challenge. It counts as in vivo, mice. The method, then: This model was used in these experiments. To elaborate, hybrid mice (BALB/c Cr×DBA/2Cr) F1 (CD2 F1) of both sexes, ranging in age from 2-4 months were used. Mice were injected, intravenously, with 10^10 cells of P. aeruginosa (serotype 10), as described by, e.g., Campanile, et al, Cell. Immunol. 128:250 (1990); Campanile, et al, Cell. Immunol. 147:341 (1993); Campanile, et al, Eur. J. Pharmacol. 307:191 (1996). The microorganism was cultured in tryptic soy broth using standard conditions, and incubated at 37° C. for 18-24 hours under constant aeration. After the overnight culturing, the microorganisms were centrifuged, forming a soft pellet which was then resuspended in phosphate buffered saline. The dose of microorganisms referred to supra was then administered. This inoculum size is known to be lethal in more than 90% of test animal populations.
The interleukins and PBS were all administered intraperitoneally. Pentoxifylline was also administered intraperitoneally.
The experiments described supra were repeated, using a variety of doses, and both prophylactic and post-challenge administration.
To test this, mice received pentoxifylline at a dose of 30 mg/kg of body weight 1 hour before challenge with bacteria. The animals received a dose of murine IL-9 (4 μg) three hours post infection.

With `CC(=O)CCCCn1c(=O)c2c(ncn2C)n(C)c1=O` [Pentoxifylline, reference compound], the “protection in experimental sepsis” value in assay [1] (phosphodiesterase inhibitor, literature statement) is on record as “confers protection”.

B1: IL-4: IL-4 (3 μg/mouse), together with 30 μg of anti-IL-4 monoclonal antibodies; composition improving bioavailability of IL-4 (protein, UniProt P07750 21-140, looked up)
Interleukin-4: HIHGCDKNHLREIIGILNEVTGEGTPCTEMDVPNVLTATKNTTESELVCRASKVLRIFYLKHGKTPCLKKNSSVLMELQRLFRAFRCLDSSISCTMNESKSTSLKDFLESLKSIMQMDYS
modifications: complexed with anti-IL-4 antibody
As for B1, in assay [1] (IL-4 3 μg/mouse together with 30 μg anti-IL-4 monoclonal antibodies, i.p., before P. aeruginosa challenge), the “protection against fatal sepsis” value is reported as 100%.

B2: IL-9: recombinant murine IL-9 produced in a baculovirus model in accordance with Druez, et al (protein, UniProt P15247 19-144, looked up)
Interleukin-9: QRCSTTWGIRDTNYLIENLKDDPPSKCSCSGNVTSCLCLSVPTDDCTTPCYREGLLQLTNATQKSRLLPVFHRVKRIVEVLKNITCPSFSCEKPCNQTMAGNTLSFLKSLLGTFQKTEMQRQKSRP
B2: the “IL-10 specific transcripts in spleen” value in the assay on IL-10 [2] is given as “extensive expression”. The results for the “drop in TNF-α levels” value in the assay on TNF-α [3] and with TNF-α [8] were 10 fold and “better than a twofold drop”, respectively. In addition, in assay [4], the “outcome (survival) of LPS challenged mice” value is given as “death in the majority of the animals tested”. Besides, the “increase of IL-10 levels (serum)” value in the assay on IL-10 [5] is reported as “The same effect, albeit a lesser one”; with IL-10 [6], “striking”. Also, the “expression of the cytokines (TNF-α, IL-12 p40, IFN-γ) in serum” value in [7] is on record as “drastic reduction in all three cytokines”. The “effect on IL-4 production (serum level)” value with IL-4 was “did not appear to have any effect”. In assay [9] (IL-9 i.p. prior to P. aeruginosa challenge, pooled independent experiments), the survival rate result is on record as “about 80%”. This molecule also registered a cure rate in [9] (single 4 μg dose 24 hours before bacterial challenge, no second dose) of 50%. For the same molecule, in [9] (single treatment of 4 μg near the time of infection, and as much as 3 hours post challenge), the “benefit (survival)” value was “marginal benefit”.

Source of the values: patent publication US6558660B2, “Method for regulating IL-10 with IL-9, and applications thereof” (Ludwig Institute for Cancer Research, priority 2000, dated 2003).
